Measurements as given in patent US20230416365A1 (Hoffmann-La Roche, published 2023).
Substitutions are numbered along the chain they refer to.

B1: A5H1EL1D Fab (phage display format, parental clone) (Fab, V domains shown)
VH: EVQLLESGGGLVQPGGSLRLSCAASGFTFTDYYMNWVRQAPGKGLEWLGFIGNKANAYTTEYSASVKGRFTISRDKSKNTLYLQMNSLRAEDTATYYCTRDRGLRFYFDYWGQGTTVTVSS
VL: EIVLTQSPATLSLSPGERATLSCRASSSVTYIHWYQQKPGQAPRSWIYATSNLASGIPARFSGSGSGTDFTLTISSLEPEDFAVYYCQHWSSKPPTFGQGTKLEIK
notes: Fab from E. coli (bacterial supernatant or IMAC-purified), Flag tag
B2: CD28(SA)_variant_12 (antibody, human IgG1, kappa, L234A L235A)
heavy: not shown
light: DIQMTQSPSSLSASVGDRVTITCRASQNIYVWLNWYQQKPGKAPKLLIYKASNLYSGVPSRFSGSRSGTDFTLTISSLQPEDFATYYCQQGQTYPYTFGQGTKLEIKRTVAAPSVFIFPPSDRKLKSGTASVVCLLNNFYPREAKVQWKVDNALQSGNSQESVTEQDSKDSTYSLSSTLTLSKADYEKHKVYACEVTHQGLSSPVTKSFNRGEC
chain: DKTHTCPPCPAPEAAGGPSVFLFPPKPKDTLMISRTPEVTCVVVDVSHEDPEVKFNWYVDGVEVHNAKTKPREEQYNSTYRVVSVLTVLHQDWLNGKEYKCKVSNKALGAPIEKTISKAKGQPREPQVCTLPPSRDELTKNQVSLSCAVKGFYPSDIAVEWESNGQPENNYKTTPPVLDSDGSFFLVSKLTVDKSRWQQGNVFSCSVMHEALHNRFTQKSLSLSP
notes: monovalent one-armed huIgG1 PG-LALA; from supernatant; also called P1AE3068
B3: CD28(SA)_variant_19 (antibody, human IgG1, kappa, L234A L235A)
heavy: not shown
light: not shown
chain: B2 chain
notes: monovalent one-armed huIgG1 PG-LALA; from supernatant; also called P1AE3075
B4: CD28(SA)_variant_17 (antibody, human IgG1, kappa, L234A L235A)
heavy: not shown
light: not shown
chain: B2 chain
notes: monovalent one-armed huIgG1 PG-LALA; from supernatant; also called P1AE3073
B5: CD28(SA)_variant_13 (antibody, human IgG1, kappa, L234A L235A)
heavy: not shown
light: not shown
chain: B2 chain
notes: monovalent one-armed huIgG1 PG-LALA; from supernatant; also called P1AE3069
B6: CD28(SA)_variant_15 (antibody, human IgG1, kappa, L234A L235A)
heavy: not shown
light: not shown
chain: B2 chain
notes: monovalent one-armed huIgG1 PG-LALA; from supernatant; also called P1AE3071
B7: CD28(SA)_variant_16 (antibody, human IgG1, kappa, L234A L235A)
heavy: not shown
light: not shown
chain: B2 chain
notes: monovalent one-armed huIgG1 PG-LALA; from supernatant; also called P1AE3072
B8: Fab derived from P1AE2166 (Fab, V domains shown)
VH: B1 VH with A57G
VL: B1 VL with Q41S, A42S, R44K
notes: Fab; also called P1AE4137
B9: Fab derived from P1AE2181 (Fab, V domains shown)
VH: B1 VH with L48V, A57G, T95V, T99A
VL: B1 VL with Q41S, A42S, R44K
notes: Fab; also called P1AE4142
B10: Fab derived from P1AE2167 (Fab, V domains shown)
VH: B1 VH with A57G
VL: B1 VL
notes: Fab; also called P1AE4138
B11: Fab derived from P1AE2182 (Fab, V domains shown)
VH: B1 VH with L48V, A57G, T95V, T99A
VL: B1 VL
notes: Fab; also called P1AE4143
B12: Fab derived from P1AE2165 (Fab, V domains shown)
VH: B1 VH with A57G
VL: B1 VL with E1Q, I2T, S45L, W46L
notes: Fab; also called P1AE4136
B13: Fab derived from P1AE2179 (Fab, V domains shown)
VH: B1 VH with L48V, A57G, T95V, T99A
VL: B1 VL with E1Q, I2T, Q41S, A42S, R44K, F70Y
notes: Fab; also called P1AE4141
B14: Fab derived from P1AE2177 (Fab, V domains shown)
VH: B1 VH with L48V, A57G, K76N, T95V
VL: B1 VL
notes: Fab; also called P1AE4140
B15: Fab derived from P1AE2164 (Fab, V domains shown)
VH: B1 VH with A57G
VL: B1 VL with E1Q, I2T, Q41S, A42S, R44K, F70Y
notes: Fab; also called P1AE4135
B16: Fab derived from P1AE2176 (Fab, V domains shown)
VH: B1 VH with L48V, A57G, K76N, T95V
VL: B1 VL with Q41S, A42S, R44K
notes: Fab; also called P1AE4139
B17: CEA (A5B7) Fab (parental murine antibody) (Fab, V domains shown)
VH: EVKLVESGGGLVQPGGSLRLSCATSGFTFTDYYMNWVRQPPGKALEWLGFIGNKANGYTTEYSASVKGRFTISRDKSQSILYLQMNTLRAEDSATYYCTRDRGLRFYFDYWGQGTTLTVSS
VL: QTVLSQSPAILSASPGEKVTMTCRASSSVTYIHWYQQKPGSSPKSWIYATSNLASGVPARFSGSGSGTSYSLTISRVEAEDAATYYCQHWSSKPPTFGGGTKLEIK
notes: Fab; also called P1AE0289
B18: bispecific CEA (P005.103-combo1)-CD28 (SA Variant 15) 1+1 IgG (bispecific antibody)
heavy 1: EIVLTQSPATLSLSPGERATLSCRASSSVTYIHWYQQKPGQAPRSWIYATSNLASGIPARFSGSGSGTDFTLTISSLEPEDFAVYYCQHWSSISPTFGQGTKLEIKSSASTKGPSVFPLAPSSKSTSGGTAALGCLVKDYFPEPVTVSWNSGALTSGVHTFPAVLQSSGLYSLSSVVTVPSSSLGTQTYICNVNHKPSNTKVDKKVEPKSCDKTHTCPPCPAPEAAGGPSVFLFPPKPKDTLMISRTPEVTCVVVDVSHEDPEVKFNWYVDGVEVHNAKTKPREEQYNSTYRVVSVLTVLHQDWLNGKEYKCKVSNKALGAPIEKTISKAKGQPREPQVCTLPPSRDELTKNQVSLSCAVKGFYPSDIAVEWESNGQPENNYKTTPPVLDSDGSFFLVSKLTVDKSRWQQGNVFSCSVMHEALHNHYTQKSLSLSP
light 1: EVQLLESGGGLVQPGGSLRLSCAASGFTFTDYYMNWVRQAPGKGLEWLGFIGNKANAYTTEYSASVKGRFTISRDKSKNTLYLQMNSLRAEDTATYYCTRDRGIRFSFDYWGQGTTVTVSSASVAAPSVFIFPPSDEQLKSGTASVVCLLNNFYPREAKVQWKVDNALQSGNSQESVTEQDSKDSTYSLSSTLTLSKADYEKHKVYACEVTHQGLSSPVTKSFNRGEC
heavy 2: not shown
light 2: not shown
notes: knob-into-hole, crossmab, PG-LALA
B19: bispecific CEA (P005.103-combo2)-CD28 (SA Variant 15) 1+1 IgG (bispecific antibody)
heavy 1: B18 heavy 1
light 1: B18 light 1 with T28Y, F50V, G52S
heavy 2: not shown
light 2: not shown
notes: as for B18
B20: bispecific CEA (P006.038)-CD28 (SA Variant 15) 1+1 IgG (bispecific antibody)
heavy 1: B18 heavy 1 with I93V, S94P
light 1: B18 light 1 with S107G
heavy 2: not shown
light 2: not shown
notes: as for B18
B21: bispecific CEA (P006.038-combo2)-CD28 (SA Variant 15) 1+1 IgG (bispecific antibody)
heavy 1: B18 heavy 1 with I93V, S94P
light 1: B18 light 1 with T30S, Y33E, G52S, S107G
heavy 2: not shown
light 2: not shown
notes: as for B18
B22: bispecific CEA (P006.038-combo1)-CD28 (SA Variant 15) 1+1 IgG (bispecific antibody)
heavy 1: B18 heavy 1 with I93V, S94P
light 1: B18 light 1 with T28Y, Y33A, F50V, G52S, S107G
heavy 2: not shown
light 2: not shown
notes: as for B18
B23: CEA (A5H1EL1D)-CD28 (SA_Variant 29) 1+1 format (Molecule 11D) (bispecific antibody, human IgG1, kappa, L234A L235A)
heavy 1: B18 heavy 1 with I93K, S94P
light 1: B18 light 1 with I104L, S107Y
heavy 2: not shown
light 2: not shown
notes: huIgG1 PG-LALA CrossFab; also called P1AE4776
B24: CEA (A5H1EL1D)-CD28 (SA_Variant 8) 1+1 format (Molecule 11B) (bispecific antibody, human IgG1, kappa, L234A L235A)
heavy 1: B18 heavy 1 with I93K, S94P
light 1: B18 light 1 with I104L, S107Y
heavy 2: not shown
light 2: not shown
notes: huIgG1 PG-LALA CrossFab; also called P1AE4774

Target: T1, N(A2B2)A-avi-His (biotinylated at the avi tag)
T1 construct: also called biotinylated N(A2B2)A-avi-His
T1 chain: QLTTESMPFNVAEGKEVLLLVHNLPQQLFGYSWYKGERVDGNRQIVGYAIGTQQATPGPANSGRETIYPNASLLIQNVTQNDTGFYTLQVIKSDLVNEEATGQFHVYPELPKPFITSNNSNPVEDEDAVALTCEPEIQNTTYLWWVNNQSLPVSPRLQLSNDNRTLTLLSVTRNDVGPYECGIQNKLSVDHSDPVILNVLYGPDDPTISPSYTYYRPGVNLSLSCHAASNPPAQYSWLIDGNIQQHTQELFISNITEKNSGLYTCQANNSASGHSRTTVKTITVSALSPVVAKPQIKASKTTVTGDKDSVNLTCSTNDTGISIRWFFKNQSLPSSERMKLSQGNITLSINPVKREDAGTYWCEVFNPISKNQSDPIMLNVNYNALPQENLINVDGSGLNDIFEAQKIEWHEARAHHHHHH
Experiment: SPR off-rate, ProteOn, antigen on NLC chip, Fab in bacterial supernatant

With B1 the koff was 0.00031 s⁻¹.

target: T2, human CD28 on CHO cells (parental cell line CHO-k1 ATCC #CCL-61, modified to stably overexpress human CD28) (human, UniProt P10747 19-220); experiment: flow cytometry on CHO cells stably expressing human CD28, monovalent one-armed IgG from supernatant, MFI (PE)
T2 construct: also called hu CD28; CHO-hCD28

B2: binds.
B3: binds.
B4: binds.
B5: binds.
B6: binds.
B7: binds.

Target: T1, N(A2B2)A-avi-His
Experiment: SPR, ProteOn, antigen on NLC chip, purified Fab as analyte

B1 gave a Kd of 2.3 nM.

Work on B1 yielded a koff of 0.000248 s⁻¹.

In the case of B1, the kon is reported as 108000 M⁻¹ s⁻¹.

Target: T3, Hu N(A2-B2)A-avi-His (human, biotinylated at the avi tag (Example 2.2))
T3 construct: also called hu N(A2-B2)A-avi-His B; CEACAM5-based antigen
T3 chain: T1 chain
Experiment: SPR, Biacore T200, antigen amine-coupled on CM5, Fab as analyte

Compared with B8, B9 is 4.3-fold lower in Kd: 11.3 nM for the first, 2.64 nM for the second.

Going from B10 to B11, the Kd rises from 1.47 nM to 2.92 nM (2-fold). The first binds more tightly here.

B12 and B13 are within 1.5-fold of each other in Kd: 1.25 nM for the first, 1.83 nM for the second.

First: B14
Second: B15
The Kd of the first is 4.5-fold higher: 7.62 nM for the first, 1.7 nM for the second.

First: B16
Second: B17
The Kd of the first is 14-fold higher: 7.58 nM for the first, 0.559 nM for the second. The second binds more tightly here.

Target: T1, N(A2B2)A-avi-His
Experiment: SPR, ProteOn, antigen on NLC chip, bispecific IgG as analyte

Compared with B18, B19 is 3-fold lower in Kd: 0.27 nM for the first, 0.09 nM for the second.

Going from B20 to B21, the Kd rises from 0.22 nM to 3.66 nM (17-fold).

B22 was tested, and the Kd was 4.48 nM.

Going from B18 to B19, the koff falls from 3.42e-05 s⁻¹ to 1.05e-05 s⁻¹ (3.3-fold).

Going from B20 to B21, the koff rises from 5.87e-05 s⁻¹ to 0.000698 s⁻¹ (12-fold).

Work on B22 yielded a koff of 0.000799 s⁻¹.

B18 and B19 are within 1.5-fold of each other in kon: 126000 M⁻¹ s⁻¹ for the first, 123000 M⁻¹ s⁻¹ for the second.

B20 and B21 are within 1.5-fold of each other in kon: 267000 M⁻¹ s⁻¹ for the first, 191000 M⁻¹ s⁻¹ for the second.

With B22 the kon was 178000 M⁻¹ s⁻¹.

target: T4, biotinylated huCD28-Fc (dimeric CD28-Fc construct with a monovalent biotinylated avi-tag) (human, UniProt P10747 19-152, biotinylated at the C-terminal avi tag); experiment: SPR, ProteOn XPR36, huCD28-Fc immobilised, bispecific as analyte
T4 construct: not shown: hum IgG1 Fc fragment with hole and PG-LALA mutations; hum IgG1 Fc fragment with knob and PG-LALA mutations

First: B23
Second: B24
The Kd of the first is 48-fold lower: 1.2 nM for the first, 58 nM for the second. The first binds more tightly here.

Compared with B23, B24 is 30-fold higher in koff: 0.000324 s⁻¹ for the first, 0.0098 s⁻¹ for the second.

Going from B23 to B24, the kon falls from 271000 M⁻¹ s⁻¹ to 169000 M⁻¹ s⁻¹ (1.6-fold).
